In one data set the target is T1, FOXL2 (Homo sapiens, UniProt P58012 1-376).
T1 sequence: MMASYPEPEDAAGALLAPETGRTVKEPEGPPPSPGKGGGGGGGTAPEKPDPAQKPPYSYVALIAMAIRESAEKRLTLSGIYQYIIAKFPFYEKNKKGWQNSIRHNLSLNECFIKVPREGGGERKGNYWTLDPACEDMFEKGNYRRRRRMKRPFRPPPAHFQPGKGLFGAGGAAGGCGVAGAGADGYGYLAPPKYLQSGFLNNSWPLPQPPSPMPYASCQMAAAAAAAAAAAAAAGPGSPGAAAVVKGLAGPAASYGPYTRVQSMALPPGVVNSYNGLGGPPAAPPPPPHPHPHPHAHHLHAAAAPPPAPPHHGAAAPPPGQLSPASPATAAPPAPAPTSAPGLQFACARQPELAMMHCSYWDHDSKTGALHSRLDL
Put plainly: pulldown; 37 C; 10 mM HEPES, 140 mM KCl, 25 mM NaCl, 1 mM MgCl2, 0.1 mM CaCl2; equimolar mix, tRNA. The note with it: tags: His-SUMO, cleaved.

For another data set, the target named is T2, FOXL2 C134W (Homo sapiens, UniProt P58012 1-376, C134W).
T2 sequence: T1 sequence with C134W
The data set is described as above. The note with it: tags: His-SUMO, cleaved.

Data set [1] addresses T3, FOXL2 C134W (mutFOXL2) (UniProt P58012 1-376, C134W).
T3 sequence: T1 sequence with C134W
Nature of the data set: pull-down competition + HTS; K+/Na+ buffer, tRNA competitor; 10 mM HEPES (pH 7.5), 140 mM KCl, 25 mM NaCl, 1 mM MgCl2, 0.1 mM CaCl2, 0.001% IGEPAL, 100 nM yeast tRNA, 50 nM total aptamers, 37 C, 30 min; Li+ variant: 140 mM LiCl replaces KCl/NaCl. Particulars: protein: recombinant; tags: His-SUMO tag cleaved; putative two-tier intramolecular G4.

The target of data set [2] is T4, FOXL2 wt (recombinant) (UniProt P58012 1-376).
T4 sequence: T1 sequence
Nature of the data set: pull-down competition + HTS; 140 mM LiCl, no K+/Na+; 10 mM HEPES (pH 7.5), 140 mM KCl, 25 mM NaCl, 1 mM MgCl2, 0.1 mM CaCl2, 0.001% IGEPAL, 100 nM yeast tRNA, 50 nM total aptamers, 37 C, 30 min; Li+ variant: 140 mM LiCl replaces KCl/NaCl. Particulars: protein: recombinant; tags: His-SUMO tag cleaved; putative two-tier intramolecular G4.

In data set [3] the target is T4, FOXL2 wt (recombinant). Nature of the data set: pull-down competition + HTS; K+/Na+ buffer, tRNA competitor; 10 mM HEPES (pH 7.5), 140 mM KCl, 25 mM NaCl, 1 mM MgCl2, 0.1 mM CaCl2, 0.001% IGEPAL, 100 nM yeast tRNA, 50 nM total aptamers, 37 C, 30 min; Li+ variant: 140 mM LiCl replaces KCl/NaCl. Particulars: protein: recombinant; tags: His-SUMO tag cleaved; putative two-tier intramolecular G4.

Data set [4] deals with T3, FOXL2 C134W (mutFOXL2). Put plainly: pull-down competition + HTS; K+/Na+ buffer; basically absent; 10 mM HEPES (pH 7.5), 140 mM KCl, 25 mM NaCl, 1 mM MgCl2, 0.1 mM CaCl2, 0.001% IGEPAL, 100 nM yeast tRNA, 50 nM total aptamers, 37 C, 30 min; Li+ variant: 140 mM LiCl replaces KCl/NaCl. Particulars: protein: recombinant; tags: His-SUMO tag cleaved; unable to fold into G4.
Data set [5] deals with T4, FOXL2 wt (recombinant). Described as above. The note with it: protein: recombinant; tags: His-SUMO tag cleaved; unable to fold into G4.
Data set [6] has as its target T4, FOXL2 wt (recombinant). Put plainly: pull-down competition + HTS; mixed with mutRF001; 10 mM HEPES (pH 7.5), 140 mM KCl, 25 mM NaCl, 1 mM MgCl2, 0.1 mM CaCl2, 0.001% IGEPAL, 100 nM yeast tRNA, 50 nM total aptamers, 37 C, 30 min; Li+ variant: 140 mM LiCl replaces KCl/NaCl. The note with it: protein: recombinant; tags: His-SUMO tag cleaved; putative two-tier intramolecular G4.

For data set [7], the target named is T4, FOXL2 wt (recombinant). Nature of the data set: pull-down competition + HTS; mixed with RF000/RF002 DNA and scr50 RNA; 10 mM HEPES (pH 7.5), 140 mM KCl, 25 mM NaCl, 1 mM MgCl2, 0.1 mM CaCl2, 0.001% IGEPAL, 100 nM yeast tRNA, 50 nM total aptamers, 37 C, 30 min; Li+ variant: 140 mM LiCl replaces KCl/NaCl. Particulars: protein: recombinant; tags: His-SUMO tag cleaved; putative two-tier intramolecular G4.

Data on 15 molecules can be found in article PMC10711433, “The forkhead DNA-binding domain binds specific G2-rich RNA sequences”.

Numbering of substitutions follows the chain as printed.

B1: mutRF001 (ssRNA)
RNA: GGGAGAGUAUCCGUUGAGGCUGACGUCAUUUGAGUGAGUGAGCGAGAGAGAGUGCGUGAGAGACGAGAGCGUGAGAUCGGAAGAGCGUCGUGUAGG
B1: the binding result with FOXL2 is on record as “no binding”.

B2: RF002 (ssRNA)
RNA: GGGAGAGUAUCCGUUGAGGCUGAUCGGACUUUGGUGGUUGGAGGACGGAUGGACGGAGGUUUAUUAGGCUCGCAGAUCGGAAGAGCGUCGUGUAGG
For B2, the binding result with FOXL2 and in the data set with FOXL2 C134W was “binds” each time.

B3: RF004 (ssRNA)
RNA: GGGAGAGUAUCCGUUGAGGCUGAAUCUGCGACUGGCUGGAGGUGGACGGAUGGCUGGAGGCGAAAUUGGCUUAAGAUCGGAAGAGCGUCGUGUAGG
On to B3, for which the binding result in the data set with FOXL2 and with FOXL2 C134W was “binds” each time.
As for UCGGACUUUGGUGGUUGGAGGACGGAUGGACGGAGGUUUAUUAGGCUCGC (structured_RNA) [RF002 RNA], the binding result with FOXL2 C134W (mutFOXL2) [1] and in the data set with FOXL2 wt (recombinant) [2] was “binds” in each case.
For GAGGUAUUAAGAGGCGGAGGCGGAAGGAUGGCGGAGGACCGACAGAGAAG (structured_RNA) [RF000 RNA], the binding result in the data set with FOXL2 C134W (mutFOXL2) [1] and in the data set with FOXL2 wt (recombinant) [3] was “binds” throughout.
In the case of GGGACACUCGCUGUUUUCGAAAUUACCCUUUAUGCGCGGGUAUUGAACCA (ssRNA) [scr50 RNA], the binding result with FOXL2 C134W (mutFOXL2) [4] and with FOXL2 wt (recombinant) [5] was “no binding” each time.

B4: RF004 DNA (ssDNA)
DNA: GGGAGAGTATCCGTTGAGGCTGAATCTGCGACTGGCTGGAGGTGGACGGATGGCTGGAGGCGAAATTGGCTTAAGATCGGAAGAGCGTCGTGTAGG
For the molecule B4, the binding result with FOXL2 is recorded as “no binding”.
For CGUCAUUUGGUGGAUGGCGGAAGGAGGCGGAGGACGGGAAAUUCUGGAAA (structured_RNA) [RF001 RNA], the binding signal in the data set with FOXL2 wt (recombinant) [6] was > 10 fold enrichment RF001/mutRF001 vs no-protein control. Further, the binding result in the data set with FOXL2 C134W (mutFOXL2) [1] is recorded as “binds”.

B5: scr50 (ssRNA)
RNA: GGGAGAGUAUCCGUUGAGGCUGAGGGACACUCGCUGUUUUCGAAAUUACCCUUUAUGCGCGGGUAUUGAACCAAGAUCGGAAGAGCGUCGUGUAGG
On to B5, for which the binding result in the data set with FOXL2 and with FOXL2 C134W was “no binding” each time.

B6: RF000 DNA (ssDNA)
DNA: GGGAGAGTATCCGTTGAGGCTGAGAGGTATTAAGAGGCGGAGGCGGAAGGATGGCGGAGGACCGACAGAGAAGAGATCGGAAGAGCGTCGTGTAGG
As to B6, the binding result with FOXL2 was “no binding”.

B7: RF001 (ssRNA)
RNA: GGGAGAGUAUCCGUUGAGGCUGACGUCAUUUGGUGGAUGGCGGAAGGAGGCGGAGGACGGGAAAUUCUGGAAAAGAUCGGAAGAGCGUCGUGUAGG
For B7, the binding result with FOXL2 and with FOXL2 C134W was “binds” throughout.

B8: RF001 DNA (ssDNA)
DNA: GGGAGAGTATCCGTTGAGGCTGACGTCATTTGGTGGATGGCGGAAGGAGGCGGAGGACGGGAAATTCTGGAAAAGATCGGAAGAGCGTCGTGTAGG
As for B8, the binding result with FOXL2 was “no binding”.

B9: RF000 (ssRNA)
RNA: GGGAGAGUAUCCGUUGAGGCUGAGAGGUAUUAAGAGGCGGAGGCGGAAGGAUGGCGGAGGACCGACAGAGAAGAGAUCGGAAGAGCGUCGUGUAGG
Take B9: the binding result with FOXL2 and with FOXL2 C134W was “binds” throughout.

B10: RF002 DNA (ssDNA)
DNA: GGGAGAGTATCCGTTGAGGCTGATCGGACTTTGGTGGTTGGAGGACGGATGGACGGAGGTTTATTAGGCTCGCAGATCGGAAGAGCGTCGTGTAGG
As to B10, the binding result in the data set with FOXL2 is given as “no binding”.
AUCUGCGACUGGCUGGAGGUGGACGGAUGGCUGGAGGCGAAAUUGGCUUA (structured_RNA) [RF004 RNA]: the binding result with FOXL2 wt (recombinant) [7] and with FOXL2 C134W (mutFOXL2) [1] was “binds” in each case.
